Source: article PMC2783421 (Developmental biology, 2009)

T1: His6-tagged ERK2 (Dictyostelium discoideum, UniProt Q54QB1 1-369)
T1 sequence (looked up): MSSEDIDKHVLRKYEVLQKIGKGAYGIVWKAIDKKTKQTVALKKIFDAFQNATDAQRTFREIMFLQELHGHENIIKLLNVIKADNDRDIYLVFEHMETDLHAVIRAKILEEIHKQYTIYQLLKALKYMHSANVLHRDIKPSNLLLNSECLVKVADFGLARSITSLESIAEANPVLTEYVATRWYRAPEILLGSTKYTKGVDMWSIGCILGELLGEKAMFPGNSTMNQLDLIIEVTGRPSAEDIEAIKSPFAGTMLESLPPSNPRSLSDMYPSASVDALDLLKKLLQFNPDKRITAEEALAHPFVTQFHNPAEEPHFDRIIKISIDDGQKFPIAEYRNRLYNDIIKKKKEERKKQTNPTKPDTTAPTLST


Molecular target: T1, His6-tagged ERK2
Test: pull-down

Row | pull-down yield (percent of the cell extract) | Binder
1 | ~9% | Myc-tagged Gα4^R107E,R108E subunit (altered D-motif) (natural protein, Dictyostelium discoideum, UniProt P34042 1-345, looked up) MRFKCFGSEETEQSSKIDKSIETDRRKLRKDVKLLLLGPGESGKSTIFKQMKIIQEDGGYSVEELLEYRAFVYSNCISQMEALLTASAKLNIELEVENKQRAANVLEETIGNEPWLLLAADIKHLWEDKGIKETYAQKDKHFQLNDSAAYFFDNIDRYMREDFVPNEQDVLRCRVRTTGIQESEFTFDKIRLKIVDVGGQRSQRRKWIHCFDCVTAVIFVAAMSDYDQVLREDESVNRTRESLALFKEIVNCDYFKETPIVLFLNKKDLFKEKLKRVPLQSCFSDYTGPNKYKDAAMFIQSQYLAQGPSPRTIYTHATCAVDTENIKFVFRAVRQTILSQALEHF
2 | ~9% | Myc-tagged constitutively active Gα4^Q200L subunit (natural protein, Dictyostelium discoideum, UniProt P34042 1-345, looked up) MRFKCFGSEETEQSSKIDKSIETDRRKLRKDVKLLLLGPGESGKSTIFKQMKIIQEDGGYSVEELLEYRAFVYSNCISQMEALLTASAKLNIELEVENKQRAANVLRRTIGNEPWLLLAADIKHLWEDKGIKETYAQKDKHFQLNDSAAYFFDNIDRYMREDFVPNEQDVLRCRVRTTGIQESEFTFDKIRLKIVDVGGLRSQRRKWIHCFDCVTAVIFVAAMSDYDQVLREDESVNRTRESLALFKEIVNCDYFKETPIVLFLNKKDLFKEKLKRVPLQSCFSDYTGPNKYKDAAMFIQSQYLAQGPSPRTIYTHATCAVDTENIKFVFRAVRQTILSQALEHF

Further lines, the binder ahead of its results:

Row | Binder | pull-down yield (percent of the cell extract)
3 | Myc-tagged Gα4 subunit (wild type) (natural protein, Dictyostelium discoideum, UniProt P34042 1-345, looked up) MRFKCFGSEETEQSSKIDKSIETDRRKLRKDVKLLLLGPGESGKSTIFKQMKIIQEDGGYSVEELLEYRAFVYSNCISQMEALLTASAKLNIELEVENKQRAANVLRRTIGNEPWLLLAADIKHLWEDKGIKETYAQKDKHFQLNDSAAYFFDNIDRYMREDFVPNEQDVLRCRVRTTGIQESEFTFDKIRLKIVDVGGQRSQRRKWIHCFDCVTAVIFVAAMSDYDQVLREDESVNRTRESLALFKEIVNCDYFKETPIVLFLNKKDLFKEKLKRVPLQSCFSDYTGPNKYKDAAMFIQSQYLAQGPSPRTIYTHATCAVDTENIKFVFRAVRQTILSQALEHF | ~22%
4 | Myc-tagged Gα4^(R107E, R108E, Q200L) subunit (natural protein, Dictyostelium discoideum, UniProt P34042 1-345, looked up) MRFKCFGSEETEQSSKIDKSIETDRRKLRKDVKLLLLGPGESGKSTIFKQMKIIQEDGGYSVEELLEYRAFVYSNCISQMEALLTASAKLNIELEVENKQRAANVLEETIGNEPWLLLAADIKHLWEDKGIKETYAQKDKHFQLNDSAAYFFDNIDRYMREDFVPNEQDVLRCRVRTTGIQESEFTFDKIRLKIVDVGGLRSQRRKWIHCFDCVTAVIFVAAMSDYDQVLREDESVNRTRESLALFKEIVNCDYFKETPIVLFLNKKDLFKEKLKRVPLQSCFSDYTGPNKYKDAAMFIQSQYLAQGPSPRTIYTHATCAVDTENIKFVFRAVRQTILSQALEHF | ~4%
